In US20190241648A1 (STATEN BIOTECHNOLOGY B V, published 2019):
Ends that are not written are not given here.

How the values were obtained:
Assay in all cases: peptide microarray
ApoC3 peptide … G46A = biological target: T1, ApoC3 peptide … G46A (human, also: cyclic constrained)
T1 peptide: ARGWVTDAFSSLK
From the text: (§1) Amino acids G41 and G46 were highly conserved; substitution of G41 by E, N or Q caused a decrease of spot intensities by ˜70% or higher, whereas exchange of G46 by N was hardly tolerated and resulting in 90% reduced spot intensities. […] Amino acid positions V43, D45 and K51 were also well conserved with a clear preference for the wild type amino acids and a certain tolerance particularly for conservative exchanges by Y, F and I (V43), A, E and K (D45) as well as by R (K51). […] Replacement of V43 by Y, however, increased spot intensity by two fold. Amino acid positions W42 and 48S were poorly conserved or even variable; both positions were susceptible for only a number of amino acid exchanges, and exchange by F, S and T (W42) or by E (S48) even caused a two- to three-fold increase of spot intensity. Amino acid positions A39 and R40 were variable.
(§2) Pre: staining of one of the ApoC3 peptide microarrays was done with the secondary antibody goat anti-human IgG (Fe) DyLight680 (1:5000) and control antibody mouse monoclonal anti-HA (12CA5) DyLight800 (1:2000) to investigate background interactions of the secondary antibody with the antigen-derived peptides that could interfere with the main assays. Subsequent incubation of other ApoC3 peptide microarrays with antibody samples was followed by staining with secondary and control antibodies as well as read-out at scanning intensities of 7/7 (red/green). The additional HA peptides framing the peptide arrays were stained as internal quality control to confirm the assay quality and the peptide microarray integrity.

ApoC3 peptide … S48C = biological target: T2, ApoC3 peptide … S48C (human, not fully specified; cyclic constrained)
T2 peptide: ARGWVTDGFCSLK
From the text: as §1, §2

ApoC3 peptide … R40D = biological target: T3, ApoC3 peptide … R40D (human, not fully specified (bridges); also: cyclic constrained)
T3 peptide: ADGWVTDGFSSLK
From the text: as §1, §2

ApoC3 peptide … S48E = ApoC3 peptide … S48E (human, cyclic constrained)
From the text: as §1, §2

ApoC3 peptide … K51E = biological target: T4, ApoC3 peptide … K51E (human, thioether (positions not given here); also: cyclic constrained)
T4 peptide: ARGWVTDGFSSLE
From the text: as §1, §2

ApoC3 peptide … W42F = biological target: T5, ApoC3 peptide … W42F (human, not fully specified (bridges); also: cyclic constrained)
T5 peptide: ARGFVTDGFSSLK
From the text: as §1, §2

ApoC3 peptide … A39H = biological target: T6, ApoC3 peptide … A39H (human, cyclic constrained)
T6 peptide: HRGWVTDGFSSLK
From the text: as §1, §2

ApoC3 peptide … V43H = biological target: T7, ApoC3 peptide … V43H (human, not fully specified; cyclic constrained)
T7 peptide: ARGWHTDGFSSLK
From the text: as §1, §2

ApoC3 peptide … L50H = biological target: T8, ApoC3 peptide … L50H (human, not fully specified; cyclic constrained)
T8 peptide: ARGWVTDGFSSHK
From the text: as §1, §2

ApoC3 peptide … K51H = biological target: T9, ApoC3 peptide … K51H (human, not fully specified; cyclic constrained)
T9 peptide: ARGWVTDGFSSLH
From the text: as §1, §2

ApoC3 peptide … F47I = biological target: T10, ApoC3 peptide … F47I (human, not fully specified (bridges); also: cyclic constrained)
T10 peptide: ARGWVTDGISSLK
From the text: as §1, §2

ApoC3 peptide … V43K = biological target: T11, ApoC3 peptide … V43K (human, not fully specified; cyclic constrained)
T11 peptide: ARGWKTDGFSSLK
From the text: as §1, §2

ApoC3 peptide … G46M = biological target: T12, ApoC3 peptide … G46M (human, not fully specified (bridges); also: cyclic constrained)
T12 peptide: ARGWVTDMFSSLK
From the text: as §1, §2

ApoC3 peptide … A39N = biological target: T13, ApoC3 peptide … A39N (human, cyclic constrained)
T13 peptide: NRGWVTDGFSSLK
From the text: as §1, §2

ApoC3 peptide … R40N = biological target: T14, ApoC3 peptide … R40N (human, not fully specified (bridges); also: cyclic constrained)
T14 peptide: ANGWVTDGFSSLK
From the text: as §1, §2

ApoC3 peptide … G41N = biological target: T15, ApoC3 peptide … G41N (human, also: cyclic constrained)
T15 peptide: ARNWVTDGFSSLK
From the text: as §1, §2

ApoC3 peptide … S49N = biological target: T16, ApoC3 peptide … S49N (human, cyclic constrained)
T16 peptide: ARGWVTDGFSNLK
From the text: as §1, §2

ApoC3 peptide … A39P = biological target: T17, ApoC3 peptide … A39P (human, cyclic constrained)
T17 peptide: PRGWVTDGFSSLK
From the text: as §1, §2

ApoC3 peptide … S49P = biological target: T18, ApoC3 peptide … S49P (human, cyclic constrained)
T18 peptide: ARGWVTDGFSPLK
From the text: as §1, §2

ApoC3 peptide … A39R = biological target: T19, ApoC3 peptide … A39R (human, not fully specified (bridges); also: cyclic constrained)
T19 peptide: RRGWVTDGFSSLK
From the text: as §1, §2

ApoC3 peptide … D45R = biological target: T20, ApoC3 peptide … D45R (human, cyclic constrained)
T20 peptide: ARGWVTRGFSSLK
From the text: as §1, §2

ApoC3 peptide … V43S = biological target: T21, ApoC3 peptide … V43S (human, not fully specified (bridges); also: cyclic constrained)
T21 peptide: ARGWSTDGFSSLK
From the text: as §1, §2

ApoC3 peptide … W42V = biological target: T22, ApoC3 peptide … W42V (human, not fully specified (bridges); also: cyclic constrained)
T22 peptide: ARGVVTDGFSSLK
From the text: as §1, §2

ApoC3 peptide … F47V = biological target: T23, ApoC3 peptide … F47V (human, also: cyclic constrained)
T23 peptide: ARGWVTDGVSSLK
From the text: as §1, §2

ApoC3 peptide … S49V = biological target: T24, ApoC3 peptide … S49V (human, not fully specified (bridges); also: cyclic constrained)
T24 peptide: ARGWVTDGFSVLK
From the text: as §1, §2

ApoC3 peptide … L50V = biological target: T25, ApoC3 peptide … L50V (human, not fully specified (bridges); also: cyclic constrained)
T25 peptide: ARGWVTDGFSSVK
From the text: as §1, §2

ApoC3 peptide … A39W = biological target: T26, ApoC3 peptide … A39W (human, not fully specified (bridges); also: cyclic constrained)
T26 peptide: WRGWVTDGFSSLK
From the text: as §1, §2

ApoC3 peptide … D45W = biological target: T27, ApoC3 peptide … D45W (human, cyclic constrained)
T27 peptide: ARGWVTWGFSSLK
From the text: as §1, §2

ApoC3 peptide … F47W = biological target: T28, ApoC3 peptide … F47W (human, also: cyclic constrained)
T28 peptide: ARGWVTDGWSSLK
From the text: as §1, §2

ApoC3 peptide … A39Y = biological target: T29, ApoC3 peptide … A39Y (human, not fully specified (bridges); also: cyclic constrained)
T29 peptide: YRGWVTDGFSSLK
From the text: as §1, §2

ApoC3 peptide … W42Y = biological target: T30, ApoC3 peptide … W42Y (human, not fully specified (bridges); also: cyclic constrained)
T30 peptide: ARGYVTDGFSSLK
From the text: as §1, §2

% of binding to wild-type peptide (ApoC3 peptide … G46A): 0% | % of binding to wild-type peptide (ApoC3 peptide … S48C): 56.8% | % of binding to wild-type peptide (ApoC3 peptide … R40D): 50% | % of binding to wild-type peptide (ApoC3 peptide … S48E): 290% | % of binding to wild-type peptide (ApoC3 peptide … K51E): 4.71% | % of binding to wild-type peptide (ApoC3 peptide … W42F): 242% | % of binding to wild-type peptide (ApoC3 peptide … A39H): 69.4% | % of binding to wild-type peptide (ApoC3 peptide … V43H): 14.6% | % of binding to wild-type peptide (ApoC3 peptide … L50H): 0% | % of binding to wild-type peptide (ApoC3 peptide … K51H): 2.43% | % of binding to wild-type peptide (ApoC3 peptide … F47I): 0% | % of binding to wild-type peptide (ApoC3 peptide … V43K): 25.4% | % of binding to wild-type peptide (ApoC3 peptide … G46M): 0% | % of binding to wild-type peptide (ApoC3 peptide … A39N): 103% | % of binding to wild-type peptide (ApoC3 peptide … R40N): 64.8% | % of binding to wild-type peptide (ApoC3 peptide … G41N): 27.5% | % of binding to wild-type peptide (ApoC3 peptide … S49N): 0% | % of binding to wild-type peptide (ApoC3 peptide … A39P): 166% | % of binding to wild-type peptide (ApoC3 peptide … S49P): 0% | % of binding to wild-type peptide (ApoC3 peptide … A39R): 89.4% | % of binding to wild-type peptide (ApoC3 peptide … D45R): 20.1% | % of binding to wild-type peptide (ApoC3 peptide … V43S): 1.54% | % of binding to wild-type peptide (ApoC3 peptide … W42V): 48.3% | % of binding to wild-type peptide (ApoC3 peptide … F47V): 0.06% | % of binding to wild-type peptide (ApoC3 peptide … S49V): 0.59% | % of binding to wild-type peptide (ApoC3 peptide … L50V): 0.74% | % of binding to wild-type peptide (ApoC3 peptide … A39W): 59.4% | % of binding to wild-type peptide (ApoC3 peptide … D45W): 0.06% | % of binding to wild-type peptide (ApoC3 peptide … F47W): 1.57% | % of binding to wild-type peptide (ApoC3 peptide … A39Y): 40.5% | % of binding to wild-type peptide (ApoC3 peptide … W42Y): 149%
B1: anti-ApoC3 antibody 14C7 (antibody, V domains shown)
VH: QVQVQESGPGLVKPSQTLSLTCTVSGGSITTNSYYWSWIRQPPGKGLEWMGAIDYSGDTYYSPSLKSRTSISRDTSKNQFTLQLTSVTPEDTAVYYCVSRIPTGEYWGQGTQVTVSS
VL: QTVVTQEPSLSVSPGGTVTLTCGLNSGSVTSSNYPDWYQQTPGQAPRLLIYNTNSRHSGVPSRFSGSISGNKAALTITGAQPEDEADYYCALYMGSDSVVFGGGTHLTVL
notes: it was detected with goat anti-human IgG (Fc); also called mAb 14C7; llama antibody 14C7
